Assay results published in patent publication US6342394.

Target: human steroid 21-hydroxylase (21-OH), 125I-labelled (human) (UniProt P08686)
Assay: 125I-21-OH + protein A; competitor: autoantibodies in pooled patient sera; irrelevant control Fab

UniProt P08686, sequence (P08686 whole entry): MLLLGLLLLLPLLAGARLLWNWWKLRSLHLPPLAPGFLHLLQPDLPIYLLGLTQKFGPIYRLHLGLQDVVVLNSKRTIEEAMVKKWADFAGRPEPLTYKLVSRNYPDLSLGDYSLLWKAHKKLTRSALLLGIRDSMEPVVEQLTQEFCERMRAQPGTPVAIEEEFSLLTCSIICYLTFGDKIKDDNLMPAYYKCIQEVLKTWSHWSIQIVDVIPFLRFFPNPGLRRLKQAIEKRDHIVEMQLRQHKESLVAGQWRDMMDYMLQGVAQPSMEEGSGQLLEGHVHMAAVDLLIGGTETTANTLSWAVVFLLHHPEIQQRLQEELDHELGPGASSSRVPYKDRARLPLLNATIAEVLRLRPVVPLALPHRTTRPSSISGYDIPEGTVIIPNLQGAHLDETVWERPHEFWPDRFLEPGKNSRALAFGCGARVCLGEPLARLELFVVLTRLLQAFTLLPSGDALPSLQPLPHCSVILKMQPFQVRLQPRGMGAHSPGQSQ

% inhibition of 125I-21-hydroxylase binding: < 15%
Substance: control Fab from a TSH receptor (TSHR) mouse monoclonal antibody
